Experimental data: patent US20210309696A1 (ENLITISA SHANGHAI PHARMACEUTICAL, published 2021)
Non-standard residues stand in square brackets, D forms with d. No end group written: not given here. Hyp = O=C(O)[C@@H]1C[C@@H](O)CN1

T1: CysLTR1 (cysteinyl leukotriene receptor CysLT1), expressed in the CYSLTR1/HEK293 cell line (UniProt Q9Y271 1-337, limits assumed)
T1 sequence (looked up): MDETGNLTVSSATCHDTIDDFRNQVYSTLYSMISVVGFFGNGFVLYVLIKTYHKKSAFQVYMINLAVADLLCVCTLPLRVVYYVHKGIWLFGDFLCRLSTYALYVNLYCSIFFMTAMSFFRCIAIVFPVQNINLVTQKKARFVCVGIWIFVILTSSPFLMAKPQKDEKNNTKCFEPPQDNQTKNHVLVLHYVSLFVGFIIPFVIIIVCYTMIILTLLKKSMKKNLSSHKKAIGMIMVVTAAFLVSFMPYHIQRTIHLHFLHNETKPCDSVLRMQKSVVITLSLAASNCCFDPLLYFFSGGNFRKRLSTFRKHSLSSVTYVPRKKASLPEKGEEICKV


Tests used:
Experiment in all cases: cell-based or functional assay
[1] = target: CysLTR1 (cysteinyl leukotriene receptor CysLT1), expressed in the CYSLTR1/HEK293 cell line (UniProt Q9Y271)
[2] = target: T1, CysLTR1 (cysteinyl leukotriene receptor …)
[3] = target: T1, CysLTR1 (cysteinyl leukotriene receptor …); remark: listed apart in the source
[4] = target: T1, CysLTR1 (cysteinyl leukotriene receptor …); remark: listed apart in the source

IC50 (nM), in vitro CysLTR1 FLIPR antagonist test (Fluo-4 calcium assay, CYSLTR1/HEK293 cells) [1] [nM]	IC50 (nM), in vitro CysLTR1 FLIPR antagonist test (Fluo-4 calcium assay, CYSLTR1/HEK293 cells) [2] [nM]	affinity to CysLTR1 relative to Compound A, derived from the FLIPR antagonist IC50s [3] [fold against Compound A]	IC50 (nM), in vitro CysLTR1 FLIPR antagonist test (Fluo-4 calcium assay, CYSLTR1/HEK293 cells), repeat [4] [nM]	Molecule
99.5				Montelukast-Ala-Lys-Pro-Ser-Tyr-Hyp-Thr-Tyr-Hyp-Lys (montelukast covalently bonded at the N-terminus) (peptide)
	475			{montelukast styrene}-AKPSY[Hyp][Hyp]TYK
	90.5	5	140	montelukast-AKPSY[Hyp][Hyp]TYK
